Results taken from patent US8003599.

Target: human L1 adhesion molecule (L1-CAM), wild type, on cells
Sequence (chain, as listed by the source): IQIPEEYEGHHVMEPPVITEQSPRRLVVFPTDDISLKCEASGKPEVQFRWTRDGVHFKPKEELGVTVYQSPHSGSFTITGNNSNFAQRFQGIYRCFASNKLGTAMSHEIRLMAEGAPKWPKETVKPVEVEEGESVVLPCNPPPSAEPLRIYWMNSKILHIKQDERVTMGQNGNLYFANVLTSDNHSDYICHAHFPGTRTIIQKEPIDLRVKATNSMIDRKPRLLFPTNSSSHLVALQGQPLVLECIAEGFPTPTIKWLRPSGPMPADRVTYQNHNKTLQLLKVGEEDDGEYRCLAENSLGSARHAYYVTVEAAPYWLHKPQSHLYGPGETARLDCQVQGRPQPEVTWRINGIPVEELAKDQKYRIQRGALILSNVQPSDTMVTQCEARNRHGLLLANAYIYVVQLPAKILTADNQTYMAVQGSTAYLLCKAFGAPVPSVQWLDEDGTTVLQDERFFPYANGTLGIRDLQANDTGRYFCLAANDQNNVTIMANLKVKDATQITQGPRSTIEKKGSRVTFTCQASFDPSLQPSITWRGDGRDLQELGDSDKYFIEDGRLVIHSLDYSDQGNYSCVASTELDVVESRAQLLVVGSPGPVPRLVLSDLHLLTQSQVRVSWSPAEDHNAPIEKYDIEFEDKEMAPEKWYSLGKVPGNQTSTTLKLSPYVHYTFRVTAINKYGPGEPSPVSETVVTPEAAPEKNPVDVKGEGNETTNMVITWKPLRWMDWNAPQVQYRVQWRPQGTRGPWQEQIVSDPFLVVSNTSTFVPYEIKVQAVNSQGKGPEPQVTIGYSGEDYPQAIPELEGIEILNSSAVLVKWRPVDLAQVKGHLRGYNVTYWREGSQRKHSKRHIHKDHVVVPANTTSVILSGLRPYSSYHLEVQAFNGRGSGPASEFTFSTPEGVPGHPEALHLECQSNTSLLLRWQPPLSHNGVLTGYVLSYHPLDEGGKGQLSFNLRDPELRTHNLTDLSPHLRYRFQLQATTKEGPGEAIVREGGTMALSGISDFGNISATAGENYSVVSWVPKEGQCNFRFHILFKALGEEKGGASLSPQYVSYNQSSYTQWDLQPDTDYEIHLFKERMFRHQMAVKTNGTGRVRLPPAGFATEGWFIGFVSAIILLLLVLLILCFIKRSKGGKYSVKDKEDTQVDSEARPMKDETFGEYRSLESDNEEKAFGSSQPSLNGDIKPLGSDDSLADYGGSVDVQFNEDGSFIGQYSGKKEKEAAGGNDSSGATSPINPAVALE

B1: human ADAM10 (membrane-bound metalloproteinase) (protein)
chain: TTSAEKNTCQLYIQTDHLFFKYYGTREAVIAQISSHVKAIDTIYQTTDFSGIRNISFMVKRIRINTTADEKDPTNPFRFPNIGVEKFLELNSEQNHDDYCLAYVFTDRDFDDGVLGLAWVGAPSGSSGGICEKSKLYSDGKKKSLNTGIITVQNYGSHVPPKVSHITFAHEVGHNFGSPHDSGTECTPGESKNLGQKENGNYIMYARATSGDKLNNNKFSLCSIRNISQVLEKKRNNCFVESGQPICGNGMVEQGEECDCGYSDQCKDECCFDANQPEGRKCKLKPGKQCSPSQGPCCTAQCAFKSKSEKCRDDSDCAREGICNGFTALCPASDPKPNFTDCNRHTQVCINGQCAGSICEKYGLEECTCASSDGKDDKELCHVCCMKKMDPSTCASTGSVQWSRHFSGRTITLQPGSPCNDFRGYCDVFMRCRLVDADGPLARLKKAIFSPELYENIAEWIVAHWWAVLLMGIALIMLMAGFIKICSVHTPSSNPKLPPPKPLPGTLKRRRPPQPIQQPQRQRPRESYQMGHMRR
L1 cleavage: L1 cleavage required the membrane-bound metalloproteinase ADAM10
